In one data set the test system is PC3 (prostate). Kind of data set: PC3 prostate cancer xenograft. In kind it is in vivo, mice. The settings on record: nab-paclitaxel 10 mg/kg, P<0.001 (FIG. 24D). The protocol:
(§1) Control animals for each xenograft were administered PBS. […] Animal weights were measured twice weekly.
(§2) These findings were further confirmed in the MDA-MB-231 breast cancer xenografts (FIG. 24C) and PC3 prostate cancer xenografts (FIG. 24D). […] In these experiments, nab-paclitaxel was dosed sub-optimally at 10 mg/kg, daily for five cycles.

For data set [1], the system named is endothelial cell tubule formation. Kind of data set: TCS Cellworks AngioKit tubule formation assay. It counts as cell-based, human. To be noted: 11 days. The source says: Next, the effect of SPARC on tubule formation was examined using the TCS cellworks human Angiokit model kit (TCS-ZHA-1000, TCS Cell Works Buckingham, UK). In this assay, the endothelial cells initially form small islands within the culture matrix. They subsequently begin to proliferate and then enter a migratory phase during which they move through the matrix to form threadlike tubule structures. These gradually join up (by 9-11 days) to form a network of anastomosing tubules which closely resembles a capillary bed.
24-well pre-seeded endothelial cell tissue culture plates containing early stage co-cultures (day 2-3) were used according to manufacturer's recommendations (TCS Cell Works, Buckingham, UK). The cultures were incubated at 37° C./5% CO2 for 11 days. Media on the cultures was changed with added test and control compounds on days 4, 7 and 9 after initial treatment, followed by fixation with 70% ethanol on day 11. Fixed cultures were subsequently stained as follows: Primary rabbit anti-CD31 antibody (Thermo Scientific) was diluted to a final concentration of 2 μg/mL in PBS/1% BSA blocking buffer. Then, 0.5 mL of diluted anti-CD31 antibody was added to each well and incubated for 1 h at 37° C. […]
The number and lengths of tubules formed were then evaluated by light microscopy. […] Total vessel number, total tubule area and the number of branch points can be similarly determined.

The subject of data set [2] is recombinant human SPARC protein. Kind of data set: Tube Formation Assay (AngioKit) with SPARC and SPARC binding antibodies. The settings on record: 10 μg/mL recombinant human SPARC in the culture media. In kind it is cell-based. The method, then: This assay was performed using the TCS Cellworks human AngioKit model kit (TCS-ZHA-1000, TCS Cell Works, Buckingham, UK) as described in Example 10 above. The media contained 10 μg/mL recombinant human SPARC protein. The media also contained 300 μg/mL of one of the above prepared mouse SPARC binding monoclonal antibodies (Imm12, Imm14, mHTI), or a control (mouse IgG).
To examine the effect of SPARC on tubule formation, and interference with that function by SPARC binding monoclonal antibodies, the number of tubules formed and their length was evaluated by light microscopy.

Another data set deals with MDA-MB-435-Luc+. Kind of data set: MDA-MB-435-Luc+ orthotopic metastatic model. It counts as in vivo, mice. The protocol: MDA-MB-435-Luc+ were implanted orthotopic in mammary fat pad (MFP) at 4×10^6 cells in 50% Matrigel and allowed to reach average tumor volume of 180 mm^3 before treatment. Treatments were: 2 cycles of 10 mg/kg nab-paclitaxel, 4 mg/kg SPARC, and bevacizumab biweekly. At appropriate time interval, the following organs were harvested for quantitation of metastasis: Proximal lymph nodes, contralateral lymph nodes, lungs, liver and brain. Statistical tests used included t-test and Mann Whitney-U.
Mice were monitored 2-3 times a week and tumor growth was recorded. Mice were sorted when tumor volumes reached 180 mm^3, and the first cycle of treatment was administered. Seven rest days were given between the first and second cycle. Bevacizumab and SPARC were continually administered during the rest period. Weight was measured periodically throughout the study to assess toxic effects from the therapy.
The following dosing schedules were followed: Control (Group 1); 10 mg/kg nab-paclitaxel daily for 3 to 5 cycles (Group 2); 4 mg/kg soluble SPARC (Bio 1) injected i.v. biweekly (Group 3); and 10 mg/kg nab-paclitaxel daily for two to five cycles and 4 mg/kg SPARC-biweekly (Group 4).
Total metastatic burden was also calculated. It is presented as measured luciferase activity in tissue extracts expressed in RLU normalized per mg protein. All contralateral lymph nodes were negative for all groups. There were a few incidences of metastasis occurred in the proximal lymph node, liver and brain. […] Liver metastasis occurred somewhat frequently in the both control and SPARC groups (present in 3 mice in each group). There was also one control mouse that had brain metastasis.

A further data set concerns HT29 (colon). From the text: Female and male athymic NCr-nu mice between 5 and 6 weeks of age weighing approximately 20 g were purchased from Harlan, Inc. (Madison, Wis., USA). Human cancer cells HT29 (colon), PC3 (prostate), and MDA-MB-231 (breast) were propagated in cell culture and implanted subcutaneously at one million cells per flank of female (for MDA-MB-231 and HT29) or male (for PC3 prostate tumor) nude mice and allowed to grow to approximately 60-100 mm^3 before treatment was initiated. Treatments included 5-fluorouracil (5FU), docetaxel (Taxotere®), albumin-bound paclitaxel (nab-paclitaxel), nab-paclitaxel plus suntinib malate (Sutent®), or nab-paclitaxel plus bevacizumab (Avastin®) with or without exogenously administered SPARC). Control animals for each xenograft were administered PBS. The longest (length) and shortest (width) tumor diameters (millimeter) and tumor depth were measured twice weekly. The tumor volume was calculated with the formula: tumor volume (mm3)=width×length×depth. Tumor growth inhibition (TGI) was defined as the percentage of tumor volume reduction compared with the control group at the time of euthanasia for the control animals. Tumor doubling time was defined as the time required for the tumor volume to double […]. Animal weights were measured twice weekly. Statistical analysis was performed using the Prism program (GraphPad, San Diego, Calif., USA). Analysis of variance (ANOVA) statistic was used to compare tumor growth curves.

The subject of data set [3] is human umbilical cord vein endothelial cells (HUVEC). Put plainly: HUVEC bead sprouting angiogenesis assay. It counts as cell-based. The settings on record: 5 days. The method, then: First, the effect of SPARC on sprouting was studied in an in vitro angiogenesis model system that was prepared using human umbilical cord vein endothelial cells (HUVEC) as described by Nakatsu et al (Methods Enzymol. 443:65-82 (2008)). Low passage HUVEC grown in M199 media supplemented with 10% FBS (Gibco, Carlsbad, Calif.) were switched to EGM-2 media (Clonetics, Walkersville, Md.) 2 days before beading. Cytodex 3 microcarrier beads (Amersham Pharmacia Biotech, Piscataway, N.J.) were hydrated and washed with PBS (pH 7.4). 1×10^6 HUVEC cells were incubated with 2500 hydrated and sterilized beads in EGM-2 medium for 4 hours at 37° C. for coating. The coated beads were next embedded in 2 mg/mL fibrinogen in PBS with 0.15 units/mL aprotinin at a concentration of 500 beads/mL. Next, 0.625 units/mL thrombin was added and 0.5 mL of the mixture was added to each well of a 24 well plate. The solution was allowed to clot at RT for 5 minutes and 37° C. for another 15 min. After clotting 20,000 lung fibroblast cells in EGM-2 media were seeded in each well. Either 1, 10 or 100 μg/mL BioI SPARC protein in PBS, or PBS without protein was added to the growth medium and cultures were maintained for 5 days until sprouting was evaluated by light microscopy. The number of tubes formed/bead and the morphology of sprouting HUVEC cells in the cultures were determined using image pro software (Media Cybernetics, Bethesda, Md.).

A further data set has as its system MDA-MB-231 (breast). Kind of data set: MDA-MB-231 breast cancer xenograft. In kind it is in vivo, mice. To be noted: MDA-MB-231 xenograft, nab-paclitaxel 10 mg/kg, P<0.001 (FIG. 24C). The protocol: as §1, §2

B1: SPARC: recombinant wild-type human SPARC (BIO1), exogenously administered (protein)
chain: APQQEALPDETEVVEETVAEVTEVSVGANPVQVEVGEFDDGAEETEEEVVAENPCQNHHCKHGKVCELDENNTPMCVCQDPTSCPAPIGEFEKVCSNDNKTFDSSCHFFATKCTLEGTKKGHKLHLDYIGPCKYIPPCLDSELTEFPLRMRDWLKNVLVTLYERDEDNNLLTEKQKLRVKKIHENEKRLEAGDHPVELLARDFEKNYNMYIFPVHWQFGQLDQHPIDGYLSHTELAPLRAPLIPMEHCTTRFFETCDLDNDKYIALDEWAGCFGIKQKDIDKDLVI
Turning to B1, the “effect of SPARC administration on antitumor effects of nab-paclitaxel and bevacizumab” value in the data set with PC3 (prostate) was “significantly inhibited”. For the same molecule, the “angiogenic activity (tubule formation)” value in data set [1] (high concentration of SPARC (100 μg/mL)) is “significantly inhibited angiogenesis”; in data set [1] (low concentrations of SPARC (1 and 10 μg/mL)) it was “stimulate angiogenesis”. For the same molecule, the tubule formation entry in data set [2] is “formation of numerous long tubules”. Moreover, in the data set on MDA-MB-435-Luc+ (MDA-MB-435-Luc+ mammary fat pad tumors), the tumor growth rate was determined as 23.16±4.38 mm3/day. The molecule also came in with an average tumor volume in the data set on MDA-MB-435-Luc+ (in 63 days) of 1765 mm3. For the same molecule, in the data set on MDA-MB-435-Luc+ (luciferase activity in lung tissue extracts), the “lung metastatic burden, average RLU/mg total protein” value turned out to be 31630±10820 RLU/mg total protein. Further, the “mice positive for lung metastasis” value with MDA-MB-435-Luc+ (mouse, in vivo) is given as 9 of 9. Moreover, the “mice with liver metastasis” value in the data set with MDA-MB-435-Luc+ (mouse, in vivo) amounted to 3 mice. Also, in the data set with MDA-MB-435-Luc+ (mouse, in vivo, in mm³ (unit assumed)), the “Tumor Volume on day 56” value stood at 1524. Besides, in the data set with MDA-MB-435-Luc+ (tumor volume on day 56), the “% Inhibition” value came to 35%. Besides, the “impact of SPARC treatment on the nab-paclitaxel/bevacizumab combination” value with HT29 (colon) (HT29 xenograft (FIG. 24B)) is recorded as “minimal negative impact”. In the data set with HT29 (colon) (HT29 xenograft, versus control group at euthanasia of control animals), the “Tumor growth inhibition (TGI)” value was 35.4%. Besides, the “seeded HUVEC/beads that had developed sprouts” value in data set [3] (1 μg/mL SPARC) is given as “less than 50%”. Also, the average sprouts/bead in data set [3] (10 μg/mL SPARC) came to 0.9 sprouts/bead; in data set [3] (100 μg/mL SPARC), 1.9 sprouts/bead. For the same molecule, in the data set on MDA-MB-231 (breast), the “effect of SPARC administration on antitumor effects of nab-paclitaxel and suntinib” value is “significantly inhibited”.

The values are drawn from US20120052007A1, “PERIPHERAL BLOOD SPARC BINDING ANTIBODIES AND USES THEREOF” (ABRAXIS BIOSCIENCE, LLC, priority 2010, published 2012).
